Legend:
[1] = target: T1, Human cMET; test: ELISA, plate coated with 100 ng/well human cMET recombinant protein, HRP anti-human Fc, OD450
T1 construct: also called human cMET recombinant protein
T1 chain: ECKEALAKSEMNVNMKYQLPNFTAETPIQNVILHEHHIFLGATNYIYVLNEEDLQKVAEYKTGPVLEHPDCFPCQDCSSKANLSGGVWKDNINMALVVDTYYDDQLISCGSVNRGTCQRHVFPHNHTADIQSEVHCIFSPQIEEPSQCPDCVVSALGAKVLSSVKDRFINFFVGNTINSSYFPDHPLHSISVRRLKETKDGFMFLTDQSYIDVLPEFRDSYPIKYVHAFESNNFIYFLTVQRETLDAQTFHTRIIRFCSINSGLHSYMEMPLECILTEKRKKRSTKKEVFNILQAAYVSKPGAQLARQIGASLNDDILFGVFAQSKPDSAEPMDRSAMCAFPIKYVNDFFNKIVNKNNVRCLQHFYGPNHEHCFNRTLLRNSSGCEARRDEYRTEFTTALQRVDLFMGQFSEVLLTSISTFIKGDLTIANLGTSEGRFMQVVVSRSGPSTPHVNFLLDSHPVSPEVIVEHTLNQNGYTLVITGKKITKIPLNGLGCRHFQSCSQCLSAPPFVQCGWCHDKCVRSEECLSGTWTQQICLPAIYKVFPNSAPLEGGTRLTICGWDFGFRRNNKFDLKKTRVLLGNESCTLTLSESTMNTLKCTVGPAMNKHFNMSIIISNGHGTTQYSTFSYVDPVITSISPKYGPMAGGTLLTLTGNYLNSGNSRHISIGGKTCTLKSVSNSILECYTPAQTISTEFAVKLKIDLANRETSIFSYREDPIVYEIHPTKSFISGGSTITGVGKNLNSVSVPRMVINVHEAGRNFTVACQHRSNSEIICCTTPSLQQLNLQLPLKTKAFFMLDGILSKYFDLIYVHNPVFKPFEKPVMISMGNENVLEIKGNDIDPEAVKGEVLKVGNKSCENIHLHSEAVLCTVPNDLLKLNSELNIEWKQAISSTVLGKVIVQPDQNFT

[2] = target: T2, Human EGFR (human, UniProt P00533); test: ELISA, plate coated with 100 ng/well human EGFR recombinant protein, HRP anti-human Fc, OD450
T2 construct: recombinant protein coated on the ELISA plate; also called human EGFR recombinant protein

[3] = target: T3, EGFR on EGFR and cMET co-expressed tumor cell lines (UniProt P00533 25-1210, limits assumed); test: flow cytometry on SNU-5 cells (co-express EGFR and cMET), PE anti-human Fc; signal of the whole bispecific, not resolved by arm
T3 construct: whole, on cells

[4] = target: T4, cMET on EGFR and cMET co-expressed tumor cell lines (UniProt P08581 25-1390, limits assumed); test: as above
T4 construct: whole, on cells
Target sequence in this assay (P08581 25-1390 limits assumed): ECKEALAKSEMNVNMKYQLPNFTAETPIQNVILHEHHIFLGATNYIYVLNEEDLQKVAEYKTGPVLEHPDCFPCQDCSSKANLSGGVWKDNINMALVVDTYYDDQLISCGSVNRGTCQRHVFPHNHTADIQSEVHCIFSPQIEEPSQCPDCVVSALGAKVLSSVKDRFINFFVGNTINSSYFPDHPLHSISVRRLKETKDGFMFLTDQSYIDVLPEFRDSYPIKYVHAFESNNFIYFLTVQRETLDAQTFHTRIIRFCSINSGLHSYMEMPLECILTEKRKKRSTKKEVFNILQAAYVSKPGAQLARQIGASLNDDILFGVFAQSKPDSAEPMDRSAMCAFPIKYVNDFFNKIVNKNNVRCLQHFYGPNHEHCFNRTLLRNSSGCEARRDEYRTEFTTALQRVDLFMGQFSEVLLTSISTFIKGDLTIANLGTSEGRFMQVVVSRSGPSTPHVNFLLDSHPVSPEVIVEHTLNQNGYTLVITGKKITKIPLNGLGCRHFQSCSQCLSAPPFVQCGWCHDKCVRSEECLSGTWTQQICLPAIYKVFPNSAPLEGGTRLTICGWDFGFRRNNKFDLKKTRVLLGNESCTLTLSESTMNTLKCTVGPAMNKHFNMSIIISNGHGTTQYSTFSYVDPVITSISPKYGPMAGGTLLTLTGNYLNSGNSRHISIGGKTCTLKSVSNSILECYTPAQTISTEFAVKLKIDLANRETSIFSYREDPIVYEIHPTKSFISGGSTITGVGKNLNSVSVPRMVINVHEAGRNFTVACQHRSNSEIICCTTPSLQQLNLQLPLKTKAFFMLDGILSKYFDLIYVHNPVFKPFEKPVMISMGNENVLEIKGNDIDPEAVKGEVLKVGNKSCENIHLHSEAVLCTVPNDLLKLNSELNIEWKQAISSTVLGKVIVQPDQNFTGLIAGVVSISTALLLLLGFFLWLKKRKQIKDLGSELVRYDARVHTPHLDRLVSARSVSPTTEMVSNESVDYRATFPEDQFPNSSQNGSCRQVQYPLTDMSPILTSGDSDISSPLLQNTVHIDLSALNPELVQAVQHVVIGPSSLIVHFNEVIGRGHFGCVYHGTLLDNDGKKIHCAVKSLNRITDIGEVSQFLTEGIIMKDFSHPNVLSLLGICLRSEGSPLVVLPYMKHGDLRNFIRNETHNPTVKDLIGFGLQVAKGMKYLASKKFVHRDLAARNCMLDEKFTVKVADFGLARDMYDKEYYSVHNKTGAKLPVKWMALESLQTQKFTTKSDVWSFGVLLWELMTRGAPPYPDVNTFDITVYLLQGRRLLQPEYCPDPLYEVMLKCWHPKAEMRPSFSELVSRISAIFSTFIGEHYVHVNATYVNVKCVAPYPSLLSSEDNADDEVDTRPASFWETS

[5] = target: T3, EGFR on EGFR and cMET co-expressed …; test: flow cytometry, NCI-N87 cells (co-express EGFR and cMET; both arms contribute)
[6] = target: T4, cMET on EGFR and cMET co-expressed …; test: as above
Target sequence in this assay (P08581 25-1390 limits assumed): as above

[7] = target: T3, EGFR on EGFR and cMET co-expressed …; test: flow cytometry, EBC-1 cells (co-express EGFR and cMET; both arms contribute)
[8] = target: T4, cMET on EGFR and cMET co-expressed …; test: as above
[9] = target: T3, EGFR on EGFR and cMET co-expressed …; test: flow cytometry, HCC-827 cells (co-express EGFR and cMET; both arms contribute)
[10] = target: T4, cMET on EGFR and cMET co-expressed …; test: as above
[11] = target: T5, human EGFR-Fc (human, UniProt P00533 25-645); test: blocking ELISA: coated human EGFR-Fc, antibody titrated, then EGF-His (blocked ligand), anti-His-HRP
T5 construct: not shown: Fc part, not described

[12] = target: T3, EGFR on EGFR and cMET co-expressed …; test: flow cytometry, MKN-45 cells (co-express EGFR and cMET; both arms contribute)
[13] = target: T4, cMET on EGFR and cMET co-expressed …; test: as above
Target sequence in this assay (P08581 25-1390 limits assumed): as above

[14] = target: T3, EGFR on EGFR and cMET co-expressed …; test: flow cytometry, SNU-5 cells (co-express EGFR and cMET; both arms contribute)
[15] = target: T4, cMET on EGFR and cMET co-expressed …; test: as above
Target sequence in this assay (P08581 25-1390 limits assumed): as above

[16] = target: T3, EGFR on EGFR and cMET co-expressed …; test: flow cytometry on NCI-H292 cells (co-express EGFR and cMET), PE anti-human Fc; signal of the whole bispecific, not resolved by arm
[17] = target: T4, cMET on EGFR and cMET co-expressed …; test: as above
Target sequence in this assay (P08581 25-1390 limits assumed): as above

EC50 (read off the curve) [1]: ~0.1 nM
EC50 (read off the curve) [2]: ~0.4 nM
EC50 (read off the curve) [3]: ~3 nM
EC50 (read off the curve) [4]: ~3 nM
EC50 (read off the curve) [5]: ~2 nM
EC50 (read off the curve) [6]: ~2 nM
EC50 (read off the curve) [7]: ~2 nM
EC50 (read off the curve) [8]: ~2 nM
EC50 (read off the curve) [9]: ~3 nM
EC50 (read off the curve) [10]: ~3 nM
IC50 (read off the curve) [11]: ~0.2 nM
EC50 (read off the curve) [12]: ~0.5 nM
EC50 (read off the curve) [13]: ~0.5 nM
EC50 (read off the curve) [14]: ~2 nM
EC50 (read off the curve) [15]: ~2 nM
EC50 (read off the curve) [16]: ~3 nM
EC50 (read off the curve) [17]: ~3 nM
B1: Amivantamab (bispecific antibody, human IgG1, kappa)
heavy 1: not shown
light 1: not shown
heavy 2: not shown
light 2: DIQMTQSPSSVSASVGDRVTITCRASQGISNWLAWFQHKPGKAPKLLIYAASSLLSGVPSRFSGSGSGTDFTLTISSLQPEDFATYYCQQANSFPITFGQGTRLEIKRTVAAPSVFIFPPSDEQLKSGTASVVCLLNNFYPREAKVQWKVDNALQSGNSQESVTEQDSKDSTYSLSSTLTLSKADYEKHKVYACEVTHQGLSSPVTKSFNRGEC
notes: Bispecific positive control

— patent publication US20250381289A1 (Genmab, published 2025)
